The target of one experiment is HLA-B*44:02. As to the kind of experiment: IEDB peptide-MHC binding, purified MHC/competitive/radioactivity; filed as Kd, often an IC50 or EC50 that approximates it; ≥ and ≤ were set here for values at or beyond the usual limits of such assays.
A further experiment deals with HLA-A*23:01. Described as above.
For another experiment, the target named is HLA-A*24:02. The description is as above.
The target of the next experiment is HLA-A*30:02. Described as above.
The target in experiment [1] is HLA-A*01:01. The description is as above.
The next experiment concerns the target HLA-A*29:02. The experiment is described as above.
Experiment [2] deals with HLA-A*26:01. The experiment is described as above.
The next experiment concerns the target HLA-A*32:01. The description is as above.
For experiment [3], the target named is HLA-A*11:01. The experiment is described as above. To be noted: source organism: Vaccinia virus WR.
The target in the next experiment is HLA-A*68:01. Described as above. Particulars: source organism: Vaccinia virus WR.
For another experiment, the target named is HLA-A*33:01. The experiment is described as above. Particulars: source organism: Vaccinia virus WR.
The next experiment deals with HLA-A*31:01. The description is as above. Particulars: source organism: Vaccinia virus WR.
Experiment [4] deals with HLA-A*03:01. The experiment is described as above. To be noted: source organism: Vaccinia virus WR.
Experiment [5] has as its target HLA-A*26:01. Put plainly: IEDB peptide-MHC binding, purified MHC/direct/fluorescence; filed as Kd, often an IC50 or EC50 that approximates it; ≥ and ≤ were set here for values at or beyond the usual limits of such assays.
Experiment [6] deals with HLA-A*11:01. The experiment is described as above. Particulars: source organism: SARS-CoV1.
In another experiment the target is HLA-B*15:01. The experiment is described as above. To be noted: source organism: SARS-CoV1.
For experiment [7], the target named is HLA-A*01:01. Described as above. Particulars: source organism: SARS-CoV1.
The target of the next experiment is HLA-B*58:01. The description is as above. To be noted: source organism: SARS-CoV1.
The target of experiment [8] is HLA-A*03:01. The description is as above. To be noted: source organism: SARS-CoV1.
Where [9] appears, read: source organism: Dengue virus 4 Philippines/H241/1956.
Setting [10] is: source organism: SARS coronavirus Tor2.
Setting [11] is: source organism: Vaccinia virus WR.
Setting [12] is: source organism: Dengue virus 3 Martinique/1243/1999.
The mark [13] stands for this setting: source organism: Mammarenavirus machupoense.
The mark [14] stands for this setting: source organism: Mammarenavirus lassaense.
The mark [15] stands for this setting: source organism: Mammarenavirus whitewaterense.

These results are taken from the Immune Epitope Database (IEDB).

A value given as a limit tells only on which side of the number the result lay.

As to AETWMSSEG, the Kd with HLA-B*44:02 (setting [9]) turned out to be 425 nM.
Take AFNCTFEYI: the Kd with HLA-A*23:01 (setting [10]) is 9.36 µM; with HLA-A*24:02 (setting [10]), ≥ 70.3 µM; with HLA-A*30:02 (setting [10]) it was 1400 nM; with HLA-A*01:01 [1] (setting [10]) it was 1400 nM; in the experiment with HLA-A*29:02 (setting [10]), 322 nM; with HLA-A*26:01 [2] (setting [10]) it was 0.0861 µM.
Regarding AIMFFPRTI, the Kd with HLA-A*32:01 (setting [11]) stood at 1.12 nM.
In the case of AMFTAALNI, the Kd with HLA-A*32:01 (setting [11]) is 123 nM.
With ASISSVLTI, in the experiment with HLA-A*32:01 (setting [11]), the Kd amounted to 13.3 nM.
As for AWMVHRQWFF, the figures for the Kd with HLA-A*23:01 (setting [12]), with HLA-A*24:02 (setting [12]) and with HLA-B*44:02 (setting [12]) were 0.00948 µM, 0.0047 µM and 2210 nM, respectively.
Consider AYLRKHFSM, for which the Kd is ≥ 24.4 µM in the experiment with HLA-A*23:01 (setting [10]); ≥ 83.3 µM with HLA-A*24:02 (setting [10]); ≥ 75000 nM in the experiment with HLA-A*30:02 (setting [10]); ≥ 78100 nM with HLA-A*01:01 [1] (setting [10]); 6290 nM with HLA-A*29:02 (setting [10]); ≥ 77.9 µM in the experiment with HLA-A*26:01 [2] (setting [10]).
DFAGKTVWF: the Kd with HLA-A*23:01 (setting [12]) came to 6.48 µM; with HLA-A*24:02 (setting [12]) it was 3.03 µM.
On to DLIKKSDAKR, for which the Kd in the experiment with HLA-A*11:01 [3] amounted to 12.5 µM; with HLA-A*68:01 it was 13.9 nM; with HLA-A*29:02 (setting [11]), 28.7 nM; in the experiment with HLA-A*33:01, 8.97 nM; with HLA-A*31:01, 3.96 nM; in the experiment with HLA-A*03:01 [4], 6.37 µM.
Take EMICFHEFL: the values for the Kd with HLA-A*23:01 (setting [13]), with HLA-A*24:02 (setting [13]) and with HLA-A*29:02 (setting [13]) were 6.96 µM, ≥ 40.9 µM and 11300 nM, respectively.
In the experiment with HLA-A*26:01 [5] (source organism: Francisella tularensis subsp. tularensis FSC033), EPILEYVVY gave a Kd of 827 nM.
For the sequence ESDSKPQKV, the Kd with HLA-A*23:01 (setting [14]) is ≥ 77.7 µM; in the experiment with HLA-A*24:02 (setting [14]) it was ≥ 77.5 µM; with HLA-A*30:02 (setting [14]) it was ≥ 76900 nM; in the experiment with HLA-A*01:01 [1] (setting [14]), 180 nM; in the experiment with HLA-A*29:02 (setting [14]), ≥ 78900 nM; in the experiment with HLA-A*26:01 [2] (setting [14]), ≥ 77.9 µM.
On to ETAEAMHAS, for which the Kd with HLA-A*26:01 [5] (source organism: Mycobacterium tuberculosis) came out at 71 nM.
FAGKTVWFVP: the Kd with HLA-A*32:01 (setting [12]) is ≥ 26600 nM.
Consider FTILCLVPAY, for which the Kd with HLA-A*23:01 (setting [10]) was ≥ 70 µM; in the experiment with HLA-A*24:02 (setting [10]) it was ≥ 70.3 µM; with HLA-A*30:02 (setting [10]), 329 nM; in the experiment with HLA-A*01:01 [1] (setting [10]) it was 456 nM; in the experiment with HLA-A*29:02 (setting [10]), 15.5 nM; with HLA-A*26:01 [2] (setting [10]), 0.0106 µM.
With FYVSSIFLHL, the Kd with HLA-A*23:01 (setting [15]) came out at 0.00855 µM; with HLA-A*24:02 (setting [15]), 0.114 µM; in the experiment with HLA-A*29:02 (setting [15]), 10.9 nM.
For the sequence GPDDQIGYY, the Kd was ≥ 77.8 µM in the experiment with HLA-A*23:01 (setting [10]); ≥ 77.6 µM with HLA-A*24:02 (setting [10]); 2450 nM with HLA-A*30:02 (setting [10]); ≥ 79400 nM with HLA-A*01:01 [1] (setting [10]); 6490 nM with HLA-A*29:02 (setting [10]); 11 µM in the experiment with HLA-A*26:01 [2] (setting [10]).
As for GTHYQNHGF, in the experiment with HLA-A*32:01 (setting [11]), the Kd stood at 6.02 nM.
For GYKNVRITF, the Kd was 11 µM in the experiment with HLA-A*23:01 (setting [10]); 6.99 µM in the experiment with HLA-A*24:02 (setting [10]); ≥ 23100 nM with HLA-A*30:02 (setting [10]); ≥ 78100 nM with HLA-A*01:01 [1] (setting [10]); 3700 nM in the experiment with HLA-A*29:02 (setting [10]); ≥ 54.1 µM with HLA-A*26:01 [2] (setting [10]).
As to HWVEITALI, the Kd with HLA-A*23:01 (setting [9]) was 0.1 µM; with HLA-A*24:02 (setting [9]), 0.317 µM.
KAADVTWEEE: in the experiment with HLA-A*32:01 (source organism: Dengue virus 3 Singapore/8120/1995), the Kd is ≥ 33100 nM.
For the sequence KMFESTYRG, the Kd with HLA-A*32:01 (source organism: Dengue virus 4 Dominica/814669/1981) turned out to be 907 nM.
In the case of KSLKKVYTF, in the experiment with HLA-A*32:01 (setting [11]), the Kd was determined as 0.485 nM.
LIPLWMAGL registered a Kd in the experiment with HLA-A*26:01 [5] (source organism: Vibrio vulnificus CMCP6) of 8980 nM.
Regarding LLMYNLLTI, the Kd in the experiment with HLA-A*32:01 (source organism: Vaccinia virus Copenhagen) worked out at 71.7 nM.
For the sequence LSDDAVVCY, the Kd in the experiment with HLA-A*23:01 (setting [10]) is ≥ 77.8 µM; with HLA-A*24:02 (setting [10]), ≥ 77.6 µM; in the experiment with HLA-A*30:02 (setting [10]), 1450 nM; with HLA-A*29:02 (setting [10]), 1000 nM; with HLA-A*26:01 [2] (setting [10]), ≥ 80.3 µM; in the experiment with HLA-A*11:01 [6], ≥ 22.3 µM. Further, the Kd stood at 474 nM with HLA-B*15:01, 17.5 nM in the experiment with HLA-A*01:01 [7], 300 nM with HLA-B*58:01 and 9.26 µM with HLA-A*03:01 [8].

A word on the Kd: it is the constant that tells how readily two partners part at equilibrium.
